Data reported in US20210380678A1 (SURROZEN OPERATING, published 2021).
Blank lines part the entries; values can stand above or below the binder they belong to.

Experiments:
[1] = target: T1, human RNF43 extracellular domain (hRNF43 ECD) (human, UniProt Q68DV7 44-197, biotinylated (His-Avi tag)); assay: ELISA (binding specificity)
T1 construct: Expressed with a His-Avi tag at the N-terminus and biotinylated; also called human RNF3 (Q44-D198)
T1 sequence: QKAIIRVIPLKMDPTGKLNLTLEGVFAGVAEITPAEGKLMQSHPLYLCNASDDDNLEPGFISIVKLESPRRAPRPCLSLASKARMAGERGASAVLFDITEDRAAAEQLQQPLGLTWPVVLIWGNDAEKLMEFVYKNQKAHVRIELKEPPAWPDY

[2] = target: T2, human ZNRF3 extracellular domain (hZNRF3 ECD) (human, UniProt Q9ULT6 56-219, biotinylated (His-Avi tag)); assay: BLI (Octet), biotinylated antigen on SA sensor, 1:1 fit
T2 construct: Expressed with a His-Avi tag at the N-terminus and biotinylated; also called ZRNF3
T2 sequence: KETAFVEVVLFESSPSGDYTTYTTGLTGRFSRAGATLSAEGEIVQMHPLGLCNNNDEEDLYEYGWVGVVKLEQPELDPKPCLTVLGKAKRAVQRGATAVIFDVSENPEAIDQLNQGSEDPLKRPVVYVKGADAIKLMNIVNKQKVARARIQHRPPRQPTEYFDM
Description: (§1) Binding characterization of recombinant Fabs or IgG' s was carried out using Bio-Layer Interferometry (BLI) using the Octet Red 96 platform (PALL ForteBio, Fremont, Calif.) with streptavidin (SA) coated biosensors (PALL ForteBio,). […] Following immobilization, sensors were dipped into samples containing test molecules at seven concentrations. Values for KD were determined by fitting the resulting data with a 1:1 binding model.

[3] = target: T2, human ZNRF3 extracellular domain …; assay: BLI (Octet) KD grade: ** = 1 uM > KD >= 100 nM
Description: as §1

[4] = target: T2, human ZNRF3 extracellular domain …; assay: BLI (Octet) KD grade: *** = 100 nM > KD
Description: as §1

[5] = target: T2, human ZNRF3 extracellular domain …; assay: BLI (Octet) KD grade: * = KD >= 1 uM
Description: as §1

- binding result [1]: binds
B1: 028S-B01 (antibody, V domains shown)
VH: QVQLVQSGAEVKKPGASVKVSCKASGYTFTAYYMHWVRQAPGQGLEWMGIINPNGGRTTYAQKFQGRVTMTRDTSTSTVYMELSSLRSEDTAVYYCARSFGVAGTLDYWGQGTLVTVSS
VL: DIVMTQSPLSLPVTPGEPASISCRSSQSLLHSNGYNYLDWYLQKPGQSPQLLIYDASNLETGVPDRFSGSGSGTDFTLKISRVEAEDVGVYYCMQTLHTPYTFGQGTKLEIK

- Kd [2]: 764 nM
- KD [3]: 100 to 1000 nM
B2: 028S-B06 (antibody, V domains shown)
VH: QVQLVQSGAEVKKPGASVKVSCKASGYRFTNYYMHWVRQAPGQGLEWMGWISPNSGATNYAQNFQGRVTMTRDTSTSTVYMELSSLRSEDTAVYYCARGGRTTVTTMAYWGQGTLVTVSS
VL: DIVMTQSPLSLPVTPGEPASISCRSSQSLLHSNGYNYLDWYLQKPGQSPQLLIYGASSLQSGVPDRFSGSGSGTDFTLKISRVEAEDVGVYYCMQGTHWPRTFGQGTKVDIK

- Kd [2]: 684 nM
- KD [3]: 100 to 1000 nM
B3: 028S-G10 (antibody, V domains shown)
VH: QVQLVQSGAEVKKPGASVKVSCKASGYTFTSYGVSWVRQAPGQGLEWMGIINPRGGSTSYAQNFQGRVTMTRDTSTSTVYMELSSLRSEDTAVYYCARYSSSWSWPFDYWGQGTLVTVSS
VL: DIQMTQSPSSLSASVGDRVTITCRASQGISNNLNWYQQKPGKAPKLLIYAASTLQSGVPSRFSGSGSGTDFTLTISSLQPEDFATYYCQQSYSTPTFGQGTKVEIK

- Kd [2]: 203 nM
- KD [3]: 100 to 1000 nM
B4: 028S-A11 (antibody, V domains shown)
VH: QVQLVQSGAEVKKPGASVKVSCKASGGTFSGYYMHWVRQAPGQGLEWMGWINPNRGGTSYAQNFQGRVTMTRDTSTSTVYMELSSLRSEDTAVYYCARGMYSSSWLRYWGQGTLVTVSS
VL: DIQMTQSPSSLSASVGDRVTITCRASQGISNYLAWYQQKPGKAPKLLIYAASSLQSGVPSRFSGSGSGTDFTLTISSLQPEDFATYYCQQGSSFPLTFGQGTKVDIK

- Kd [2]: 109 nM
- KD [3]: 100 to 1000 nM
B5: 028S-G06 (antibody, V domains shown)
VH: EVQLLESGGGLVQPGGSLRLSCAASGFAFSNFAMIWVRQAPGKGLEWVSAISGSGGSTYYADSVKGRFTISRDNSKNTLYLQMNSLRAEDTAVYYCARLRANYGMDVWGQGTTVTVSS
VL: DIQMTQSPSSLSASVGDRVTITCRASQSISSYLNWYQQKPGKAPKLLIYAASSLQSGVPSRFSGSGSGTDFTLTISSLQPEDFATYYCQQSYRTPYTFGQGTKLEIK

- binding result [1]: binds
B6: 020S-E06 (antibody, V domains shown)
VH: QVQLVQSGAEVKKPGASVKVSCKASGYTFTGYYMHWVRQAPGQGLEWMGIINPSGGSTSYAQKFQGRVTMTRDTSTSTVYMELSSLRSEDTAVYYCARGRQGVWDYWGRGTLVTVSS
VL: DIQMTQSPSSLSASVGDRVTITCRSSQSIRTYLNWYQQKPGKAPKLLIYAASTLQSGVPSRFSGSGSGTDFTLTISSLQPEDFATYYCQQANSFPITFGGGTKVEIK

- Kd [2]: 874 nM
- KD [3]: 100 to 1000 nM
B7: 028S-D04 (antibody, V domains shown)
VH: QVQLVQSGAEVKKPGASVKVSCKASGGTFSSYAISWVRQAPGQGLEWMGRISPNRGGTKYAQKFQGRVTMTRDTSTSTVYMELSSLRSEDTAVYYCARDSWLRGAWGYWGQGTLVTVSS
VL: DIQMTQSPSSLSASVGDRVTITCRASQSISRWLAWYQQKPGKAPKLLIYAASTLQSGVPSRFSGSGSGTDFTLTISSLQPEDFATYYCQQSFSTPYTFGQGTKVEIK

- binding result [1]: binds
B8: 020S-F06 (antibody, V domains shown)
VH: QVQLVQSGAEVKKPGASVKVSCKASGYTFTSYYLHWVRQAPGQGLEWMGWMNPNSGNTGYAQNFQGRVTMTRDTSTSTVYMELSSLRSEDTAVYYCARGDFWSGYYPYYYYYYGMDVWGQGTTVTVSS
VL: DIQMTQSPSSLSASVGDRVTITCRVSQGISSYLNWYQQKPGKAPKLLIYAASTLQSGVPSRFSGSGSGTDFTLTISSLQPEDFATYYCQQSYGAPLTFGQGTKVEIK

- Kd [2]: 65.4 nM
- KD [4]: < 100 nM
B9: 028S-B07 (antibody, V domains shown)
VH: QVQLVQSGAEVKKPGASVKVSCKASGYTFTEYYMHWVRQAPGQGLEWMGWMNPNSGHAGSAQKFQGRVTMTRDTSTSTVYMELSSLRSEDTAVYYCARGRRSGLSPPAYWGQGTLVTVSS
VL: EIVMTQSPATLSVSPGERATLSCRASQSVSASLAWYQQKPGQAPRLLIYGASTRATGIPARFSGSGSGTEFTLTISSLQSEDFAVYYCHQYFSPPMTFGQGTRLEIK

- Kd [2]: 3320 nM
- KD [5]: ≥ 1000 nM
B10: 028S-D02 (antibody, V domains shown)
VH: QVQLQQSGPGLVKPSQTLSLTCAISGDSVSSNSAAWYWIRQSPSRGLEWLGRTYYRSKWYHDYAVSVKSRITINADTSKNQFSLQLNSVTPEDTAVYYCARVVRAVDAFDIWGQGTMVTVSS
VL: ETTLTQSPGTLSLSPGERATLSCRASQSVNSRYLAWYQQKPGQAPRLLIYGASSRATGIPDRLTGSGSGTDFTLTISRLEPEDFAVYYCQQYGSSRLTFGGGTKVEIK

- Kd [2]: 95.3 nM
- KD [4]: < 100 nM
B11: 028S-E04 (antibody, V domains shown)
VH: EVQLLESGGGLVQPGGSLRLSCAASGFTFNNFGMSWVRQAPGKGLEWVSGISASGRNTYYADSVKGRFTISRDNSKNTLYLQMNSLRAEDRAVYYCARETRHGSDYWGQGTLVTVSS
VL: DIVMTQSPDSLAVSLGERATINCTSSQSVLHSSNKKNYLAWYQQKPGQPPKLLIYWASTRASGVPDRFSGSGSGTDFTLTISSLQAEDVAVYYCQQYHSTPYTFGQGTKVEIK

- Kd [2]: 25.1 nM
- KD [4]: < 100 nM
B12: 028S-C03 (antibody, V domains shown)
VH: QVQLVQSGAEVKKPGASVKVSCKASGYTFSRYFMHWVRQAPGQGLEWMGWINPNSGGTRYAQNLQGRVTMTRDTSTSTVYMELSSLRSEDTAVYYCARDQKGKSSSWFRFDPWGQGTLVTVSS
VL: not shown

- binding result [1]: binds
B13: 024S-A02 (antibody, V domains shown)
VH: EVQLVQSGAEVKKPGASVKVSCKASGYTFTSYAMHWVRQAPGQRLEWMGWINAGNGNTKYSQTFQGRVTITRDTSASTAYMELSSLRSEDTAVYYCARDLMVRGGPPFDYWGQGTLVTVSS
VL: not shown

- Kd [2]: 3900 nM
- KD [5]: ≥ 1000 nM
B14: 028S-E08 (antibody, V domains shown)
VH: EVQLLESGGGLVQPGGSLRLSCAASGFSFSNYAMSWVRQAPGKGLEWVSAISGSGRTTYYADSVKGRFTISRDNSKNTLYLQMNSLRAEDTAVYYCARRTSSFSLWGQGTLVTVSS
VL: DIQMTQSPSSLSASVGDRVTITCRASQSINNWLAWYQQKPGKAPKLLIYKASSLESGVPSRFSGSGSGTDFTLTISSLQPEDFATYYCQQANTFPITFGQGTRLEIK

- Kd [2]: 36.2 nM
- KD [4]: < 100 nM
B15: 028S-A04 (antibody, V domains shown)
VH: QVQLVQSGAEVKKPGASVKVSCKASGYTFTNYKMHWVRQAPGQGLEWMGKINPSSGSTSYAQKFQGRVTMTRDTSTSTVYMELSSLRSEDTAVYYCARSGAGMWYFDLWGRGTLVTVSS
VL: DIQMTQSPSSLSASVGDRVTITCRASQDIYRYLNWYQQKPGKAPKLLIFAASSLHSGVPSRFSGSGSGTDFTLTISSLQPEDFATYYCQQSYTTPITFGQGTKVEIK

- binding result [1]: binds
B16: 028S-G01 (antibody, V domains shown)
VH: QVQLVQSGAEVKKPGASVKVSCKASGYTFTNYYMHWVRQAPGQGLEWMGWINPHSGGTNYAQKFQGRVTMTRDTSTSTVYMELSSLRSEDTAVYYCAREDYNWNDGWFDPWGQGTLVTVSS
VL: DIQMTQSPSSLSASVGDRVTITCRASENIHKYLNWYQQKPGKAPKLLIYAASSLQSGVPSRFSGSGSGTDFTLTISSLQPEDFATYYCQQGYSTPYTFGQGTKLEIK

- Kd [2]: 48 nM
- KD [4]: < 100 nM
B17: 028S-H04 (antibody, V domains shown)
VH: QVQLVQSGAEVKKPGASVKVSCKASGYTFIGYYMHWVRQAPGQGLEWLGWVNPKNGHTGYAQKFQGRVTMTRDTSTSTVYMELSSLRSEDTAVYYCAKDLEHTGYSSGWAGFDYWGQGTLVTVSS
VL: not shown
